The values below come from patent publication US20200138866A1 (XYPHOS BIOSCIENCES, published 2020).

For this assay, the target named is T1, Fc-NKG2D.Y152A (human).
T1 construct: also called NKG2D.YA; Fc-NKG2D.YA
Put plainly: ELISA and Octet.

T1 sequence (chain, as listed by the source Y152A Y152A limits assumed): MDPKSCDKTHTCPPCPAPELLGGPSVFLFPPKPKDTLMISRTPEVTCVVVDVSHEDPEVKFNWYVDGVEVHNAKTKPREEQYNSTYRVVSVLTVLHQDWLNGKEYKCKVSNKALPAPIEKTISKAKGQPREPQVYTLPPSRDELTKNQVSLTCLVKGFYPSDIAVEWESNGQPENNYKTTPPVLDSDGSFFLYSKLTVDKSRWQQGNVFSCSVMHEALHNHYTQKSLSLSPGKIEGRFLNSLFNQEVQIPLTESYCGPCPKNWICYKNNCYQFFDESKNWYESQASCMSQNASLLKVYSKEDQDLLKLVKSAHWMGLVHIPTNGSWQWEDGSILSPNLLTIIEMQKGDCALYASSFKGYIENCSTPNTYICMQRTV

B1: rituximab-ULBP2.S3 MicAbody (bispecific antibody, human IgG1, kappa)
heavy: not shown
light: QIVLSQSPAILSASPGEKVTMTCRASSSVSYIHWFQQKPGSSPKPWIYATSNLASGVPVRFSGSGSGTSYSLTISRVEAEDAATYYCQQWTSNPPTFGGGTKLEIKRTVAAPSVFIFPPSDEQLKSGTASVVCLLNNFYPREAKVQWKVDNALQSGNSQESVTEQDSKDSTYSLSSTLTLSKADYEKHKVYACEVTHQGLSSPVTKSFNRGECAPTSSSGGGGSEPHSLSYDITVIPKFRPGPRWCAVQGQVDEKTFLHYDCGNKTVTPVSPLGKKLNVTTAWKAQNPVLREVVDILTEQLWDIQLENYTPKEPLTLQARMSCEQKAEGHSSGSWQFSFDGQIFLLFDSEKRMWTTVHPGARKMKEKWENDKVVATKLYLWSMGDCIGWLEDFLMGMDSTLEPS
notes: also called ULPB2.S3; U2S3 MicAbody
For B1, the binding result is recorded as “binds”.
